Changes are numbered by the printed parent chain.
Tests used:
Assay in all cases: ELISA, coated protein
HSA(ヒト血清アルブミン) = target: T1, HSA(ヒト血清アルブミン) (ヒト, UniProt P02768 25-609)
T1 construct: also called HSA

BSA(ウシ血清アルブミン) = target: T2, BSA(ウシ血清アルブミン) (ウシ, UniProt P02769 25-607)
T2 construct: also called BSA

Human-hemoglobin = Human-hemoglobin (human, UniProt P69905 2-142; P68871 2-147)

Measured: binding result

T1 sequence (P02768 25-609): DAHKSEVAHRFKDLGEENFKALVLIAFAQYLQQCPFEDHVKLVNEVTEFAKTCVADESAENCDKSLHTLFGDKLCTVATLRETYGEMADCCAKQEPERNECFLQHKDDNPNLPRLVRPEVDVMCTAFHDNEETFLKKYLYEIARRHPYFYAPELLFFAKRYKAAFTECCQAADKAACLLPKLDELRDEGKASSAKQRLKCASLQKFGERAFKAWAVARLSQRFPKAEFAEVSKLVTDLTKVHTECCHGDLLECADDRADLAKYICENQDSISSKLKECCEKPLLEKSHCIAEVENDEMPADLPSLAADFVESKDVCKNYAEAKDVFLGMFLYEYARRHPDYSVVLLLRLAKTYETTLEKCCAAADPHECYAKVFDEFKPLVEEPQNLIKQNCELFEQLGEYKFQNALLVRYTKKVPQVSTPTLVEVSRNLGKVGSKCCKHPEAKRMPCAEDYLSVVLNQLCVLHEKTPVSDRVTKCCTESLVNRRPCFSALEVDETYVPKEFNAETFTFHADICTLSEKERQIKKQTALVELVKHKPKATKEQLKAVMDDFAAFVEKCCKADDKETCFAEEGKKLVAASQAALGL
Human-hemoglobin, sequence (P69905 2-142 limits assumed, chain 1 of 2): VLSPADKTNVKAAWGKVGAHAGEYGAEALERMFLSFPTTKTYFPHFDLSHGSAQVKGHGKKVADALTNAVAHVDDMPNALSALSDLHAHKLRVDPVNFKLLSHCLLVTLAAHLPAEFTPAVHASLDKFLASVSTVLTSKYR
Human-hemoglobin, sequence (P68871 2-147 limits assumed, chain 2 of 2): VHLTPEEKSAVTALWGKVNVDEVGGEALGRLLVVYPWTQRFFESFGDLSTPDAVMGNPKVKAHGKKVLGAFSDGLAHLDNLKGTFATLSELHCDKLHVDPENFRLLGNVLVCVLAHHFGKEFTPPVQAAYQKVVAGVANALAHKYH
T2 sequence (P02769 25-607 limits assumed): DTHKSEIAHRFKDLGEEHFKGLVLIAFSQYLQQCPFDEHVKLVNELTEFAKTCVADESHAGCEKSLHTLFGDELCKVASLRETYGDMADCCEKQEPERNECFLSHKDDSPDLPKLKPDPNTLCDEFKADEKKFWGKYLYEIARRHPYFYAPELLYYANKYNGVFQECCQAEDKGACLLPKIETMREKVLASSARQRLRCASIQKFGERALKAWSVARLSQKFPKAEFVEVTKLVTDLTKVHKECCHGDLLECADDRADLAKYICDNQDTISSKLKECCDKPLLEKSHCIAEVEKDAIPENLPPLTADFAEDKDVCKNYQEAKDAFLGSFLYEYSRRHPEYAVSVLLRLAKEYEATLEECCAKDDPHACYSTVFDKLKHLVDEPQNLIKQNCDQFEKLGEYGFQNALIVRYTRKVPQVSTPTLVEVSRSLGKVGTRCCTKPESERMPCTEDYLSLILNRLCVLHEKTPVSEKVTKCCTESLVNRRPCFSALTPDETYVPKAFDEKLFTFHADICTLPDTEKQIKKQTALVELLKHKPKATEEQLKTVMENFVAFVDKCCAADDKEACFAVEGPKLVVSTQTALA

B1: モノクロナール抗体(抗体酵素)HA1−1 (antibody, V domains shown)
VH: QVQLQQSGPQLVRPGASVKISCKTSGYSFTTYWMHWVKQRPGQGLDWIGMIDPSESETRLNQKFKDKATLTVDKSSSTADMQLSSPTSEDSAVYYCASYEGYWGQGTLVTVS
VL: DIVMSQSPSSLAVSAGEKVTMSCKSSQSLLNSRTRKNYLAWYQQKPGQSPKLLIYWASARESGVPDRFTGSGSGTDFTLTISSVQAEDLAVYYCKQSYTLTWTFGGGTKVEIKR
notes: also called HA1-1; HA1−1抗体
no binding: all assays above

B2: モノクロナール抗体(抗体酵素)HA1−2 (antibody, V domains shown)
VH: QVQLQQSGPHLVRPGTSVRISCKASGYSFTSYWMHWVKQRPGQGLEWIGMIAPSDSETGLNQKFKDKATLTVDKSSSTAYIQLSSPTSEDSAVYYCASYEAYWGQGTLVTVS
VL: B1 VL with A15V, T34A, A59T, T99N, L100V, V110L
notes: also called HA1-2; HA1−2抗体
no binding: all assays above

From JP2006347922A (dated 2006)
